{"source": "patent US20150017115A1", "about": "(RAMOT AT TEL AVIV UNIVERSITY, published 2015)", "target": "T1, Neural cell adhesion molecule (NCAM, CD56) (human, UniProt P13591 20-858)", "T1 construct": "whole, on cells", "T1 sequence (P13591 20-858)": "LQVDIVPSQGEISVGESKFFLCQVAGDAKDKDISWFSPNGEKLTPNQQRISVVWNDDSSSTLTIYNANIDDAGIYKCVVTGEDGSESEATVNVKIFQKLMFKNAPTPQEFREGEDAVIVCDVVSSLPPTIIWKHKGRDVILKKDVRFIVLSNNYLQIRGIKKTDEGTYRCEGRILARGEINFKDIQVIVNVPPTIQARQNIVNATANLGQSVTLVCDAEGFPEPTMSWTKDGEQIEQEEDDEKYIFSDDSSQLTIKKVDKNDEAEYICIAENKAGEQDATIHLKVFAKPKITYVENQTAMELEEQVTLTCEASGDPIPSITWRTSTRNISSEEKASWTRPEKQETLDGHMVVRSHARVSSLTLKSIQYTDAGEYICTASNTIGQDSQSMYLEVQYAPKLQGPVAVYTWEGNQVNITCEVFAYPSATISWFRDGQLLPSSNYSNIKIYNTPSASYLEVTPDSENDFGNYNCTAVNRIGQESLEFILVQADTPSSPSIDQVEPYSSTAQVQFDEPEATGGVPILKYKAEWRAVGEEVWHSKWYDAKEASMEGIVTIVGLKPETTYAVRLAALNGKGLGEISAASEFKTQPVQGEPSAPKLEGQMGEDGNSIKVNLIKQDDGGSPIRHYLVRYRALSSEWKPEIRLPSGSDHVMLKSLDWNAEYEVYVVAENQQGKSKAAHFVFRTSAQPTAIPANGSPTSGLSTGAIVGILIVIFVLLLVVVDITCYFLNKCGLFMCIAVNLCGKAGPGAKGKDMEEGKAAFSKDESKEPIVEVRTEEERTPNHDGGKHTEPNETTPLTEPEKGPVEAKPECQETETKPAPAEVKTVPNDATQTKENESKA", "assay": "confocal microscopy of Saos-2 cells with fluorescently labeled peptide", "description": "Cell specificity and uptake of the fluorescently labeled peptides was monitored utilizing a Zeiss Meta LSM 510 confocal imaging system. Cells were plated on glass slides and incubated overnight. The following day cells were incubated with 100 μM of CF-NTP or CF-scrambled peptide for 30 minutes at 37° C., washed several times with PBS, fixated with 4% paraformaldehyde, stained with Hoechst stain and mounted on slides. In order to examine intracellular trafficking of the peptide, cells were incubated with the peptides in serum free medium, washed several times with cold PBS and incubated with […] AlexaFluor 594 human transferrin for 1 h at 37° C. Cells were washed several times with PBS, fixated with 4% PFA, stained with Hoechst stain and mounted on slides.\nBinding of NTP (SEQ ID NO:1) to Saos-2 cells, compared to binding of sNTP (SEQ ID NO:2), was examined by confocal microscopy. FITC-labeled targeting peptides were used. […] In experiments with transferrin, peptide was seen as intracellular aggregates or vesicles, though not colocalized with transferrin.", "note": "Ends that are not written are not given here. CF = 5(6)-carboxyfluorescein", "data": [{"binder": "{CF}-GESDDEND (also called scrambled peptide; CF-scrambled peptide)", "note": "[scrambled NTP sequence (sNTP), fluorescein-labeled]", "values": [{"measurement": "binding result", "value": "no binding (tested: 100 µM)"}]}]}
